Measured values: patent publication US20050137135A1 (priority 2002, published 2005)
“Also recorded” adds a separate entry of the source. Ends that are not written are not given here.

Columns and labels:
[1] = target: T1, rat pancreatic islet (wild type) GIP-receptor (Rattus norvegicus, UniProt P43219); assay: biochemical; format: binding
T1 construct: expressed in transfected cells; host or cells: CHO-K1 (Chinese hamster ovary)
T1 sequence (P43219 19-455): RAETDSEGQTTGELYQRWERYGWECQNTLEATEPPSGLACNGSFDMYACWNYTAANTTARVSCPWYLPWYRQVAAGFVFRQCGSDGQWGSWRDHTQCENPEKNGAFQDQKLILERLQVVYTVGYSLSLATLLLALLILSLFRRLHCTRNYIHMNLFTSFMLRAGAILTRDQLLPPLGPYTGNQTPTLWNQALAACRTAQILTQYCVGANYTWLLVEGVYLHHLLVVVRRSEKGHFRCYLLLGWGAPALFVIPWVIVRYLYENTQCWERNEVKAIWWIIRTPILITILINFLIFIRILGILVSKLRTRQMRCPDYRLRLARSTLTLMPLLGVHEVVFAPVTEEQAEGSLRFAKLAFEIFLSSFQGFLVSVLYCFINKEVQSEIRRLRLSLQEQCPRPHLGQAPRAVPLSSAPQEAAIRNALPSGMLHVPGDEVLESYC
Procedure: (§1) Cells were cultured in DMEM/F12, supplemented with 10% newborn calf serum, 50 units/ml penicillin G, and 50 μg/ml streptomycin (Culture media and antibiotics from Gibco BRL, Life Technologies). Cells were grown in 75 cm^2 flasks until 80-90% confluent, when they were split and seeded onto 24 well plates at a density of 50,000 cells/well. Experiments were carried out 48 h later.
(§2) Binding studies using ^125I-labeled spGIP1-42, purified by high performance liquid chromatography (HPLC), were performed essentially as described previously-[21]. wtGIP-R1 Cells (1-5×10^5/well) were washed twice at 4° C. in binding buffer (BB), consisting of DMEM/F12 (GIBCO), 15 mM HEPES, 0.1% bovine serum albumin (BSA), 1% Trasylol (aprotinin; Bayer), pH 7.4. They were incubated for 12-16 h at 4° C. with ^125I-spGIP (50,000 cpm) in the presence or absence of unlabeled GIP1-42 or analogue. Following incubation, cells were washed twice with ice cold buffer, solubilized with 0.1 M NaOH (1 ml), and transferred to culture tubes for counting of cell-associated radioactivity. Nonspecific binding was defined as that measured in the presence of 1 μM GIP1-42 or GIP1-30, and specific binding expressed as % of binding in the absence of competitor (% B/Bo).

[2] = target: T2, DPIV (dipeptidyl peptidase IV) (Sus scrofa, UniProt P22411); assay: Determination of DPIV resistance by MALDI-TOF mass spectrometry; format: in vitro ADME; settings: purified kidney DPIV, 0.04 M Tris buffer pH 7.6, up to 24 h, MALDI-TOF MS; read-out: half life after incubation with DP IV
T2 construct: The hydrolysis of peptide analogues by purified kidney DPIV was studied as described previously [12]; from tissue; host or cells: kidney
Procedure: The hydrolysis of peptide analogues by purified kidney DPIV was studied as described previously. […] Samples were removed from the incubation mixture and prepared for MALDI-TOF mass spectrometry, as described in Pauly, […]., Pederson, R. A., and Demuth, H. U.

INS-1 (832/13) cells [3] = assay: Cell survival during glucose deprivation (CYQUANT); format: cell-based; settings: inhibitor added 15 min prior to final 24 h culture, 100 nM GIP
Procedure: (§3) Cell passages 45-60 were used.
Cells were seeded into 96-well plates (5×10^4 cells/well) prior to experimentation. […] Cells were quantified using the CYQUANT™ assay system (Molecular Probes, Eugene, Oreg., USA) according to the manufacturers' protocol.
Cell survival was assessed in the presence of prolonged glucose deprivation.

[4] = test system: caspase-3 activity in INS-1 (832/13) cells; assay: Caspase-3 activity induced by glucose deprivation; format: cell-based; settings: 6 h; 100 nM GIP, 10 µM forskolin
Procedure: INS-1 cells (clone 832/13) seeded into 6-well plates were serum starved for 12-24 h and subjected to glucose deprivation (RPMI with 0.1% BSA) or treatment with 2 mM streptozotocin (STZ). […] Following treatment, caspase-3 activity was determined after 2, 6, or 24 h according to the manufacturers' protocol (Molecular Probes, Eugene, Oreg., USA). Caspase-3 activity/well was corrected for total protein content using the BCA protein assay (Pierce, Roxford, II, USA).

INS-1 (832/13) cells [5] = assay: Glucose dependent β-cell proliferation (CYQUANT cell quantification); format: cell-based
Procedure: as §3
Cells were seeded into 96-well plates (5×10^4 cells/well) prior to experimentation. […] Thereafter, cells were washed with KRBH (115 mM NaCl, 4.7 mM KCl, 1.2 mM KH2PO4, 10 mM NaHCO3, 1.28 mM CaCl2, 1.2 mM MgSO4 containing 10 mM HEPES and 0.1% bovine serum albumin, pH 7.4) and frozen at −70° C. until assayed. Cells were quantified using the CYQUANT™ assay system (Molecular Probes, Eugene, Oreg., USA) according to the manufacturers' protocol. Final cell numbers were always greater than the initial number plated in assessing cellular proliferation.

[6] = target: T3, rat pancreatic islet (wild type) GIP-receptor stably expressed on CHO-K1 cells (rat) (UniProt P43219); assay: displacement of 125I-GIP from intact CHO-K1 cells expressing rat GIP receptor, 10 µM peptide
T3 sequence (looked up): T1 sequence (P43219 19-455)

[7] = target: T3, rat pancreatic islet (wild type) GIP-receptor stably expressed on CHO-K1 cells (rat); assay: cell-based or functional assay
[8] = target: T3, rat pancreatic islet (wild type) GIP-receptor stably expressed on CHO-K1 cells (rat); assay: competition with 125I-GIP on intact CHO-K1 cells expressing rat GIP receptor
[9] = target: T1, rat pancreatic islet (wild type) GIP-receptor; assay: cAMP production in CHO-K1 cells expressing the GIP-receptor (wtGIP-R1 cells); format: cell-based; settings: basal cyclic AMP = 2.737 ± 0.079 fmol/1000 cells; for cAMP Production (Fold Basal) 10 μM: 10 μM peptide
Procedure: as §1
Cells were extracted with 70% ethanol and cAMP levels measured by radioimmunoassay (Biomedical Technologies, Stoughton, Mass.). Data are expressed as fmol/1000 cells or % maximal GIP1-42-stimulated cAMP production (inhibition experiments).

[10] = target: T4, rat pancreatic islet (wild type) GIP-receptor stably expressed on CHO-K1 cells (rat, UniProt P43219 19-455); assay: cell-based or functional assay
T4 sequence (looked up): T1 sequence (P43219 19-455)

[11] = target: T4, rat pancreatic islet (wild type) …; assay: displacement of 125I-GIP from intact CHO-K1 cells expressing rat GIP receptor, 10 µM peptide
Procedure: as §1, with “cm²” for “cm^2”
as §2, with “¹²⁵I-labeled spGIP₁₋₄₂,” for “^125I-labeled spGIP1-42,”, “(1-5×10⁵/well)” for “(1-5×10^5/well)”, “¹²⁵I-spGIP” for “^125I-spGIP”, “GIP₁₋₄₂” for “GIP1-42”, “GIP₁₋₃₀,” for “GIP1-30,”

[12] = target: T4, rat pancreatic islet (wild type) …; assay: competition with 125I-GIP on intact CHO-K1 cells expressing rat GIP receptor
Procedure: as §1, with “cm²” for “cm^2”
as §2, with “¹²⁵I-labeled spGIP₁₋₄₂,” for “^125I-labeled spGIP1-42,”, “(1-5×10⁵/well)” for “(1-5×10^5/well)”, “¹²⁵I-spGIP” for “^125I-spGIP”, “GIP₁₋₄₂” for “GIP1-42”, “GIP₁₋₃₀,” for “GIP1-30,”

T2 sequence (P22411 whole entry): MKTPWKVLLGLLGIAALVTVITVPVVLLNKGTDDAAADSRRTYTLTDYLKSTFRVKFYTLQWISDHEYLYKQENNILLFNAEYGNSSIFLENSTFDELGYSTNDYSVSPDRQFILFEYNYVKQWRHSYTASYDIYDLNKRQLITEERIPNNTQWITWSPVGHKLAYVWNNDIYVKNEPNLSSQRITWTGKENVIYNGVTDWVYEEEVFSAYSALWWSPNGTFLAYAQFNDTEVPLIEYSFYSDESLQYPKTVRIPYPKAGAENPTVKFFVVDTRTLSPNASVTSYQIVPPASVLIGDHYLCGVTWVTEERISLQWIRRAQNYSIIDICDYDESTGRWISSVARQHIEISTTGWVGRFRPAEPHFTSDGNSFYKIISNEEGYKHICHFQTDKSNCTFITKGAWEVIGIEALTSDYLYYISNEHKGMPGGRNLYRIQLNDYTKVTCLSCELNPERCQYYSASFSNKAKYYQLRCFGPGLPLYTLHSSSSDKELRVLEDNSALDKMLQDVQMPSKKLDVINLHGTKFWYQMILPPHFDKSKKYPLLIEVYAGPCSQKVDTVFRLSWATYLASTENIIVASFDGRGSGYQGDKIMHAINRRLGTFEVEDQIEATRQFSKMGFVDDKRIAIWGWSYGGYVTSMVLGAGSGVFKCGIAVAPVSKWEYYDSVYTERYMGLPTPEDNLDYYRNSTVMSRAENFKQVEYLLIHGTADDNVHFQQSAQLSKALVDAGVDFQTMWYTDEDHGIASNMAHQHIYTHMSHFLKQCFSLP

YAEGTF-NH2 [GIP1-6a]
Receptor Binding % Displacement at 10 μM ([1]; 10000.0): −3.6 ± 7.8% | half-life [2]: > 0.125 h

N#CC(=C(/N)Sc1ccccc1N)/C(C#N)=C(\N)Sc1ccccc1N [U0126]
effect of protein kinase inhibitor on GIP-mediated cell survival (INS-1 (832/13) cells [3]): Neither of the Mek1/2 inhibitors PD98059 (50 and 100 μM) nor U0126 (10 μM) blocked

Oc1ccc(-c2nc(-c3ccncc3)c(-c3ccc(F)cc3)[nH]2)cc1 [SB202190]
effect of protein kinase inhibitor on GIP-mediated cell survival (INS-1 (832/13) cells [3]): influenced GIP-mediated cell survival

CC(=O)N[C@@H](CC(=O)O)C(=O)N[C@@H](CCC(=O)O)C(=O)N[C@H](C(=O)N[C@H](C=O)CC(=O)O)C(C)C [Ac-DEVD-CHO]
0 mM glucose induced caspase-3 activity [4]: completely blocked low glucose activation

GH: GH, comparator for cell growth in INS-1 cells
cell proliferation, % of growth in the presence of 5.5 mM glucose (INS-1 (832/13) cells [5]; 11 mM glucose, 10 nM, FIG. 15A): 158±9%

YSEGTFISDYSIAMDKIRQQDFVNWLLAQK-NH2 [Ser^2-GIP1-30a]
half-life [2]: 2.28 ± 0.205 h

O=S(=O)(NCCNC/C=C/c1ccc(Br)cc1)c1cccc2cnccc12 [H89]
effect of protein kinase inhibitor on GIP-mediated cell survival (INS-1 (832/13) cells [3]): lack of effect; also recorded: unable to reverse

GIP 1-15OH (from UniProt P09681 52-66) (peptide)
% Displacement at 10 µM [6]: -3.1%

COc1cccc(-c2cc(=O)c3ccccc3o2)c1N [PD98059]
effect of protein kinase inhibitor on GIP-mediated cell survival (INS-1 (832/13) cells [3]): Neither of the Mek1/2 inhibitors PD98059 (50 and 100 μM) nor U0126 (10 μM) blocked

GIP 1-7NH2 (from UniProt P09681 52-58) (peptide)
% Displacement at 10 µM [6]: -6.1%

glucagon-like peptide-17-36 [GLP-1]
cell growth, % of that measured in the presence of 5.5 mM glucose (INS-1 (832/13) cells [5]; separate experiment, 100 nM, n=4): 129±4%

GIP 15-42OH (peptide)
cAMP Production (Fold Basal) at 10 µM [7]: 1.02 fold basal | cAMP Production (Fold Basal) at 20 µM [7]: 1.01 fold basal | % Displacement at 10 µM [6]: 83.3% | IC50 [8]: 1.27 µM

YGEGTFISDYSIAMDKIRQQDFVNWLLAQK-NH2 [Gly^2-GIP1-30a]
half-life [2]: 2.51 ± 0.455 h

YAEGTFISDYSIAMDKIRQQDFVNWLLAQK-NH2 [GIP1-30a, reference compound]
cAMP Production (Fold Basal) 10 μM [9]: 108 ± 12 Fold Basal | Receptor Binding % Displacement at 10 μM ([1]; 10 μM peptide, 125I-GIP): 99.8 ± 1.2% | half-life [2]: < 0.25 h

ISDYSIAMDKIRQQDFVNWLLAQK-NH2 [GIP7-30a, reference compound]
cAMP Production (Fold Basal) 10 μM [9]: 0.89 ± 0.06 Fold Basal | cAMP Production (Fold Basal) 20 μM ([9]; 20 μM peptide): 0.85 ± 0.03 Fold Basal | Receptor Binding % Displacement at 10 μM ([1]; 10 μM peptide, 125I-GIP): 99.3 ± 1.0% | half-life [2]: 2.17 ± 0.177 h

YPEGTF-NH2 [Pro^2-GIP1-6a]
half-life [2]: > 0.125 h

YAEGTFISDYSIA-NH2 (peptide, UniProt P09681 52-64, looked up, range 1-13) [GIP 1-13NH2]
cAMP Production (Fold Basal) at 10 µM [10]: 6.51 fold basal | cAMP Production (Fold Basal) at 20 µM [10]: 15.7 fold basal | % Displacement at 10 µM [11]: 5%

YAEGTFISDYSIAM-NH2 (peptide, UniProt P09681 52-65, looked up, range 1-14) [GIP 1-14NH2]
cAMP Production (Fold Basal) at 10 µM [10]: 75.4 fold basal | cAMP Production (Fold Basal) at 20 µM [10]: 88.3 fold basal | % Displacement at 10 µM [11]: 27.9%

DKIRQQDFVNWLLAQK-NH2 (peptide, UniProt P01281 15-30, looked up, range 15-30; also called GIP15-30a) [GIP 15-30NH2]
IC50 [12]: 1.4 µM | cAMP Production (Fold Basal) at 10 µM [10]: 1.24 fold basal | cAMP Production (Fold Basal) at 20 µM [10]: 1.01 fold basal | % Displacement at 10 µM [11]: 82.7%

B1: GIP 1-14OH (peptide, UniProt P09681 52-65, looked up)
peptide: YAEGTFISDYSIAM-OH
notes: range 1-14; free acid form; also called native GIP (1-14)
cAMP Production (Fold Basal) at 10 µM [10]: 88.9 fold basal | cAMP Production (Fold Basal) at 20 µM [10]: 85.2 fold basal | % Displacement at 10 µM [11]: 51.3%

QQDFVNWLLAQK-NH2 (peptide, UniProt P09681 70-81, looked up, range 19-30; also called GIP19-30a) [GIP 19-30NH2]
cAMP Production (Fold Basal) at 10 µM [10]: 20.1 fold basal | cAMP Production (Fold Basal) at 20 µM [10]: 45 fold basal | % Displacement at 10 µM [11]: 52.3%

YAEGTFISDYSIA-OH (peptide, UniProt P09681 52-64, looked up) [GIP 1-13OH]
cAMP Production (Fold Basal) at 10 µM [7]: 1.03 fold basal | cAMP Production (Fold Basal) at 20 µM [7]: 1.15 fold basal | % Displacement at 10 µM [6]: -0.2%

IRQQDFVNWLLAQK-NH2 (peptide, UniProt P01281 17-30, looked up, range 17-30; also called GIP17-30a) [GIP 17-30NH2]
IC50 [12]: 1.54 µM | cAMP Production (Fold Basal) at 10 µM [10]: 1.13 fold basal | cAMP Production (Fold Basal) at 20 µM [10]: 1.12 fold basal | % Displacement at 10 µM [11]: 81.9%

YAEGTF-NH2 (peptide, UniProt P09681 52-57, looked up) [GIP 1-6NH2]
cAMP Production (Fold Basal) at 10 µM [7]: 1.27 fold basal | cAMP Production (Fold Basal) at 20 µM [7]: 1.08 fold basal | % Displacement at 10 µM [6]: -3.6%
